From the supplement of paper PMC6757056
± gives the standard deviation of the averaged measurements.

B1: library; a variant is named by its letters at N, in order (parent)
chain: GCUGUCACCGGUGCUUGGUACGUUAUAUUCAGCCGGUCUGAUGAGUCUNNNNNNAGACGAAACAGC

Tests used:
(6R,S)-folinic acid [1] = variants of: B1; experiment: FACS-Seq fitted mean relative fluorescence mCherry/BFP without ligand (log10 relative fluorescence); HEK293T overexpressing SLC46A1; higher = higher reporter protein expression; details: without (6R,S)-folinic acid; ligand present: no
In short: (§1)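 Genomic DNA from 6 mCherry/BFP sort bins was PCR-amplified, barcoded and sequenced on MiSeq. The sorted cells were enriched HEK293T libraries, lentivirally transduced with a ribozyme-switch mCherry reporter and an EF1α-BFP marker, incubated with or without ligand for 48 h. Fluorescence derives from a normal fit to the bin counts. The fit was on log10(mCherry/BFP), and means were scaled to five spiked-in control ribozymes.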

(6R,S)-folinic acid [2] = variants of: B1; experiment: normalized RNA/DNA level without ligand (relative to sTRSVctl = 100) (log10 (% of sTRSVctl)); HEK293T overexpressing SLC46A1; higher = less ribozyme self-cleavage, higher mRNA level; details: without (6R,S)-folinic acid; ligand present: no
In short: (§2)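 Only sequences with at least 100 DNA reads were analyzed, from HEK293T cells transfected with 4 µg per 6-well well of ribozyme switch library plasmids 72 h before RNA extraction with EDTA. Any ligand was added 1 h before transfection. RNA level was defined as RNA over DNA reads, normalized to a spiked-in non-cleaving sequence or to the top sequences, then scaled and log-transformed. The top set was 25 sequences, and the scaling was ×100 followed by log10.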

(6R,S)-folinic acid [3] = variants of: B1; experiment: FACS-Seq fitted mean relative fluorescence mCherry/BFP with ligand (log10 relative fluorescence); HEK293T overexpressing SLC46A1; ligand concentration (+) FACS-Seq: 6 mM; higher = higher reporter protein expression; details: with (6R,S)-folinic acid; ligand present: yes
In short: as §1

(6R,S)-folinic acid [4] = variants of: B1; experiment: normalized RNA/DNA level with ligand (relative to sTRSVctl = 100) (log10 (% of sTRSVctl)); HEK293T overexpressing SLC46A1; ligand concentration (+) RNA-Seq: 6 mM; higher = less ribozyme self-cleavage, higher mRNA level; details: with (6R,S)-folinic acid; ligand present: yes
In short: as §2

Row | Variant | FACS-Seq fitted mean (log10) ((6R,S)-folinic acid [1]) | normalized RNA/DNA level without ligand (log10) ((6R,S)-folinic acid [2]) | FACS-Seq fitted mean (log10) ((6R,S)-folinic acid [3]) | normalized RNA/DNA level with ligand (log10) ((6R,S)-folinic acid [4])
1 | GACAUA | 0.346 ± 0.14 | 1.984 ± 0.0071 | 0.3032 ± 0.002 | 2.01 ± 0.044
2 | GACGGA | 0.373 ± 0.037 | 1.991 ± 0.014 | 0.557 ± 0.19 | 2.05 ± 0.033
3 | GACGGG | 0.31 ± 0.087 | 1.99 ± 0.011 | 0.302 ± 0.24 | 2.04 ± 0.051
4 | UAGAAU | 0.421 ± 0.089 | 1.921 ± 0.016 | 0.615 ± 0.02 | 2 ± 0.041
5 | AUGGAG | 0.271 ± 0.039 | 1.735 ± 0.0043 | 0.622 ± 0.21 | 1.97 ± 0.02
6 | GACGAU | 0.612 ± 0.086 | 1.954 ± 0.0091 | 0.648 ± 0.068 | 2 ± 0.037
7 | ACACCG | 0.142 ± 0.015 | 1.99 ± 0.022 | 0.198 ± 0.14 | 2.01 ± 0.022
8 | GCGACC |  | 2.029 ± 0.0059 |  | 2.07 ± 0.037
9 | ACCUAG | 0.3338 ± 0.0029 | 1.956 ± 0.0051 | 0.37 ± 0.31 | 2.02 ± 0.03
10 | GUGGAC | 0.143 ± 0.12 | 1.868 ± 0.016 | -0.011 ± 0.21 | 1.975 ± 0.0039
11 | CAAGUU | 0.055 ± 0.13 | 2 ± 0.021 | 0.00566 ± 0.18 | 2.03 ± 0.046
12 | GAGGGG |  | 2.007 ± 0.018 |  | 2.04 ± 0.051
13 | UAUCCG | 0.17 ± 0.01 | 1.84 ± 0.017 | 0.376 ± 0.25 | 1.993 ± 0.019
14 | CUUACC |  | 2.022 ± 0.0014 |  | 1.995 ± 0.016
15 | UUUGAG | -0.104 ± 0.12 | 1.735 ± 0.0097 | 0.41 ± 0.25 | 1.98 ± 0.033
16 | CGCAAA |  | 1.9697 ± 0.001 |  | 1.988 ± 0.0069
17 | AAAUUU | 0.415 ± 0.0088 | 2.053 ± 0.0076 | 0.218 ± 0.093 | 2.05 ± 0.039
18 | GGUUAG | 0.215 ± 0.017 | 1.982 ± 0.016 | 0.245 ± 0.13 | 2 ± 0.035
19 | CAUGUA |  | 1.947 ± 0.0027 |  | 1.99 ± 0.047

Row | Variant | FACS-Seq fitted mean (log10) ((6R,S)-folinic acid [1]) | normalized RNA/DNA level without ligand (log10) ((6R,S)-folinic acid [2]) | FACS-Seq fitted mean (log10) ((6R,S)-folinic acid [3]) | normalized RNA/DNA level with ligand (log10) ((6R,S)-folinic acid [4])
20 | UUAGCA | -0.108 ± 0.12 | 1.9803 ± 0.0011 | -0.232 ± 0.1 | 2.0126 ± 0.00039
21 | UCUGGA | 0.542 ± 0.018 | 1.99 ± 0.012 | -0.0265 ± 0.23 | 2.05 ± 0.027
22 | UCUGGC |  | 2.03 ± 0.022 |  | 2.0358 ± 0.00061
23 | CUGAGA | -0.345 ± 0.055 | 1.985 ± 0.0047 | -0.472 ± 0.062 | 1.99 ± 0.035
24 | GAAGUU | 0.522 ± 0.18 | 2.007 ± 0.0088 | 0.481 ± 0.2 | 2.04 ± 0.03
25 | UCGUCG | 0.35 ± 0.044 | 2.02 ± 0.04 | 0.455 ± 0.16 | 2.06 ± 0.011
26 | AGGUGA | 0.616 ± 0.086 | 1.964 ± 0.0069 | 0.768 ± 0.25 | 2.03 ± 0.028
27 | UGGUAA | 0.244 ± 0.12 | 1.878 ± 0.01 | 0.0329 ± 0.18 | 1.95 ± 0.02
28 | UGGUAG | 0.0552 ± 0.19 | 1.5837 ± 9.7e-05 | 0.505 ± 0.61 | 1.935 ± 0.017
29 | UUAGGC | 0.366 ± 0.0042 | 1.974 ± 0.0042 | 0.465 ± 0.26 | 2 ± 0.058
30 | CCCUCA | 0.596 ± 0.099 | 2.0625 ± 0.0014 | 0.512 ± 0.32 | 2.04 ± 0.038
31 | AAAGUG | -0.0552 ± 0.019 | 1.675 ± 0.0049 | 0.25 ± 0.14 | 1.95 ± 0.031
32 | GCCAGU |  | 2.056 ± 0.0089 |  | 2.049 ± 0.015
33 | GCCAGG | 0.43 ± 0.14 | 1.982 ± 0.0037 | 0.666 ± 0.18 | 2.002 ± 0.015
34 | GCCAGC | 0.269 ± 0.003 | 2.0142 ± 0.00072 | 0.102 ± 0.14 | 2.02 ± 0.038
35 | GAGUGG | 0.427 ± 0.07 | 1.914 ± 0.0062 | 0.493 ± 0.18 | 2.01 ± 0.046
36 | CCAGGA |  | 1.993 ± 0.00019 |  | 1.98 ± 0.036
37 | UUGAUG | 0.136 ± 0.018 | 1.797 ± 0.0018 | 0.436 ± 0.22 | 1.99 ± 0.046
38 | UCUGUU | 0.459 ± 0.039 | 2.02 ± 0.03 | 0.679 ± 0.29 | 2.0647 ± 0.00045
